Common to all, as to experiment: Quantitative phosphorylation assay of T33-Sic1ΔC constructs and recombinant substrates
Assay type in all cases: biochemical

One data set concerns the target T1, Clb5-Cdk1 (Saccharomyces cerevisiae, UniProt P00546+P30283).
T1 construct: We purified the four cyclin-Cdk1 complexes from yeast; made in house; host or cells: S. cerevisiae strain DOM0076 (gal-CLB5-TAP, sic1 deleted); Cks1 from bacteria
As to conditions: for effect of competitor peptide on Clb5-dependent phosphorylation of Sic1ΔC: synthetic competitor peptide 4 mM, result in words; for kcat/KM, Clb5: Table S2, purified protein substrate, relative values, not divided by [S]. How it is done: (§1) For the quantitative phosphorylation assays of T33-Sic1ΔC constructs and recombinant substrates, substrate concentrations were kept in the range of 0.5–2 μM (in the linear [S] versus v0 range, several-fold below the estimated KM value), and initial velocity conditions were defined as an initial substrate turnover of up to 10% of the total turnover. For the steady-state peptide kinetics of the Histone peptide PKTPKKAKKL, a similar assay composition was used as for protein substrates, and phosphocellulose paper was used for the quantification of the phosphorylated substrate. […]
(§2) similar substrate specificity as the Cln2-Cdk1 version purified using a TAP-tag. N-terminally 6His-tagged recombinant T33-Sic1ΔC constructs and substrates were cloned into the pET28a vector and purified by standard cobalt affinity chromatography and elution with 200 mM imidazole. 6His-Fin1 was purified as described previously (Woodbury and Morgan, 2007). Substrates cloned into the pGEX-4T-1 were purified on glutathione agarose columns using 5 mM reduced glutathione for elution. Cks1 was purified as described previously (Reynard et al., 2000). The optimal working concentration for purified Cks1 was taken as 500 nM based on optimization performed for cyclin-Cdk1 preparations and T33-Sic1ΔC as a substrate.
(§3) For the quantitative phosphorylation assays of T33-Sic1ΔC constructs and recombinant substrates, substrate concentrations were kept in the range of 0.5-2 μM (in the linear [S] vs v0 range, several-fold below the estimated KM value), and the initial velocity conditions were defined as an initial substrate turnover ranging up to 10% of the total turnover. The latter was estimated by a long-term incubation with excess amounts of cyclin-Cdk1 and 32P-γ-ATP in the standard reaction mixture given below. About 1-10 nM of purified kinase complex was used, reaction aliquots were taken at two or more time points, and the reaction was stopped by SDS-PAGE sample buffer. The relative kcat/KM values for the substrates were calculated as the ratio of v0/[S], which was determined from at least two independent experiments. The basal composition of the assay mixture contained 50 mM Hepes, pH 7.4, 100 mM NaCl, 0.1% NP-40, 20 mM imidazole, 0.1 mg/ml 2HA peptide, 2% glycerol, 2 mM EGTA, 0.2 mg/ml BSA, […], and 500 μM ATP (with added 32P-γ-ATP (Perkin Elmer)).
(§4) About 1-10 nM of purified kinase complex was used, reaction aliquots were taken at two or more time points, and the reaction was stopped by SDS-PAGE sample buffer. For the steady-state peptide kinetics of the Histone peptide PKTPKKAKKL, a similar assay composition was used as for protein substrates and the standard phosphocellulose method was applied for the quantification of the phosphorylated substrate (Loog and Morgan, 2005). Synthetic peptides as competitor agents were used in 4 mM final concentrations. […]

Another data set deals with T2, Cln2-Cdk1 (Saccharomyces cerevisiae, UniProt P00546+P20438).
T2 construct: We purified the four cyclin-Cdk1 complexes from yeast; made in house; host or cells: S. cerevisiae strain DMY305 (galactose-induced); Cks1 from bacteria
T2 sequence (P00546 2-298 limits assumed): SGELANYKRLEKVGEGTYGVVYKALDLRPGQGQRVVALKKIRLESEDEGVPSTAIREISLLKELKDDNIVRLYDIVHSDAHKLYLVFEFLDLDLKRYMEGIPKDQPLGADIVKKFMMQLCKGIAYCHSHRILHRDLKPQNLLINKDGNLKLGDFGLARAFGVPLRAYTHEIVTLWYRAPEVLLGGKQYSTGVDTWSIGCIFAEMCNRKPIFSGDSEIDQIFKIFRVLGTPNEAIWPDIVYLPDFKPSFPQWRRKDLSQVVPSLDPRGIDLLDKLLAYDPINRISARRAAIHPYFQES
T2 sequence (P20438 whole entry partner): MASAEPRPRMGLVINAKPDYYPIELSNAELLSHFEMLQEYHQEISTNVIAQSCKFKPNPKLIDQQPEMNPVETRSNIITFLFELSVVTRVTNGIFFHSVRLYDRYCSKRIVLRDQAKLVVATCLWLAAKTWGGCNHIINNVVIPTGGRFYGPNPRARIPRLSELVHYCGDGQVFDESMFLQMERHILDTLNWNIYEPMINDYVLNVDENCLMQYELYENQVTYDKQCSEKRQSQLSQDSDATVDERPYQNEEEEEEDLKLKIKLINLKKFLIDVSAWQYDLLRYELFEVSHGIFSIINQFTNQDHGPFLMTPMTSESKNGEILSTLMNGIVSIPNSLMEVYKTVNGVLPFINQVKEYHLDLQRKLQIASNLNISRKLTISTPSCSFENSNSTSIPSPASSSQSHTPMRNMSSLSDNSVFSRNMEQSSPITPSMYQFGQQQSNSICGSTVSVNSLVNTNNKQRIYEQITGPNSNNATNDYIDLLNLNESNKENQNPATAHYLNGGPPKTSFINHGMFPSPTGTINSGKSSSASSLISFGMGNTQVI
T2 sequence (P20486 whole entry partner): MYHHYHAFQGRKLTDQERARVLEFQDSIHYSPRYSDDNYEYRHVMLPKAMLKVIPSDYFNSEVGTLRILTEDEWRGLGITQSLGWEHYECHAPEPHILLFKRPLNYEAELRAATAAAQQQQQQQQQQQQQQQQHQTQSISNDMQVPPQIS
As to conditions: for kcat/KM, Cln2: Table S2, purified protein substrate, relative values, not divided by [S]. The method, then:
as §1, §2, §3, §4

For a further data set, the target named is T3, Clb2-Cdk1 (Saccharomyces cerevisiae, UniProt P00546+P24869).
T3 construct: We purified the four cyclin-Cdk1 complexes from yeast; made in house; host or cells: S. cerevisiae strain DOM0077 (gal-CLB2-TAP, sic1 deleted); Cks1 from bacteria
T3 sequence (P00546 2-298 limits assumed): as the sequence (P00546 2-298 limits assumed) above
T3 sequence (P24869 2-491 partner limits assumed): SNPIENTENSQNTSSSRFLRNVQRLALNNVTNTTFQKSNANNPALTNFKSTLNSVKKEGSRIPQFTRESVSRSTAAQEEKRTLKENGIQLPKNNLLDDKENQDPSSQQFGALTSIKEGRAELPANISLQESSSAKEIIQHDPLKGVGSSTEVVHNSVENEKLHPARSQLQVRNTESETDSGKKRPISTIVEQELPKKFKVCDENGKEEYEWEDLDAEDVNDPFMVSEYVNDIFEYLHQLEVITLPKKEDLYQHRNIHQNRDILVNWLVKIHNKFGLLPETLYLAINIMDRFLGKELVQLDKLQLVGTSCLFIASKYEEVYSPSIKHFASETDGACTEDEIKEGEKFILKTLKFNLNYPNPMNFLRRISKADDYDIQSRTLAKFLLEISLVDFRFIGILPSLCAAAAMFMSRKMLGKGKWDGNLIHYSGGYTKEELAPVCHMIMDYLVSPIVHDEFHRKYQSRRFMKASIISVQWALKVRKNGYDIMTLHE
T3 sequence (P20486 whole entry partner): as the sequence (P20486 whole entry partner) above
As to conditions: Table S2; purified protein substrate; relative values, not divided by [S]. The method, then: as §1, §2, §3, §4

The next data set concerns the target T4, Clb3-Cdk1 (Saccharomyces cerevisiae, UniProt P00546+P24870).
T4 construct: We purified the four cyclin-Cdk1 complexes from yeast; made in house; host or cells: S. cerevisiae strain DOM0957 (gal-CLB3-TAP, sic1 deleted); Cks1 from bacteria
As to conditions: Table S2; purified protein substrate; relative values, not divided by [S]. How it is done:
as §1, §2, §3, §4

The mark [1] stands for this setting: synthetic competitor peptide 4 mM.

T1 sequence (P00546 2-298 limits assumed): as the sequence (P00546 2-298 limits assumed) above
T1 sequence (P30283 whole entry partner): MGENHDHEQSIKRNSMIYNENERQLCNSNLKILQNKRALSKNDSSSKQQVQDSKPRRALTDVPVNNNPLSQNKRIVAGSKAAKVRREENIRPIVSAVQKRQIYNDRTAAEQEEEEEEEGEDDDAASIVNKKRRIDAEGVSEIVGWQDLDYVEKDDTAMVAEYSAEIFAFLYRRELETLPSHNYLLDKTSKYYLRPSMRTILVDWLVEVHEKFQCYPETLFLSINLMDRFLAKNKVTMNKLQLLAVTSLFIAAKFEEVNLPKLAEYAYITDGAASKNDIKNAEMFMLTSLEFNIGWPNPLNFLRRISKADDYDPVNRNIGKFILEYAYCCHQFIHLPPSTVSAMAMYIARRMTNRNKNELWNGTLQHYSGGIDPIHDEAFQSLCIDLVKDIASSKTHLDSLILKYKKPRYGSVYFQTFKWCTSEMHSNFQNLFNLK
T1 sequence (P20486 whole entry partner): as the sequence (P20486 whole entry partner) above
T4 sequence (P00546 2-298 limits assumed): as the sequence (P00546 2-298 limits assumed) above
T4 sequence (P24870 whole entry partner): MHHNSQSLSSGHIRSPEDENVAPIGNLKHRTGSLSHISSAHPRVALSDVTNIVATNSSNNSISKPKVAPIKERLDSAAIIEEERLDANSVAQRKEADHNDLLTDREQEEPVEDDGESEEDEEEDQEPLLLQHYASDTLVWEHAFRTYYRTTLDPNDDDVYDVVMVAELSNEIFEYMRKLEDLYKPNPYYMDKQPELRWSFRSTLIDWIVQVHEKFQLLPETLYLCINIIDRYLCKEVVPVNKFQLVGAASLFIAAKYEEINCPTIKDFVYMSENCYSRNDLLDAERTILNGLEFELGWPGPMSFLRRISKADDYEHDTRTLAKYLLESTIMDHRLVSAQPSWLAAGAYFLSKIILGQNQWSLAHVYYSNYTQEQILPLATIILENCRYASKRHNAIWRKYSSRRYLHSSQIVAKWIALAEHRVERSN
T4 sequence (P20486 whole entry partner): as the sequence (P20486 whole entry partner) above

On to “RVNAIAFPT [AXL peptide, similar peptide in which the arginine of the RXL motif was replaced with alanine]”, for which the “effect of competitor peptide on Clb5-dependent phosphorylation of Sic1ΔC” value at Clb5-Cdk1 is reported as “only the RXL peptide reduces the specificity of Clb5”. Also, the “effect of competitor peptide on Cln2-dependent phosphorylation of Sic1ΔC” value at Cln2-Cdk1 (setting [1]) was 3- to 4 fold.
Turning to VLLPPSRPTS [LP peptide], on Cln2-Cdk1 (synthetic competitor peptide 4 mM, result in words), the “effect of competitor peptide on Cln2 docking / Cln2-dependent phosphorylation of Sic1ΔC” value is reported as “competitive inhibitor of the docking”.
With “RVNRILFPT [synthetic peptide based on the RXL2 motif of Sic1]”, on Clb5-Cdk1, the “effect of competitor peptide on Clb5-dependent phosphorylation of Sic1ΔC” value was “had an effect on Clb5-dependent phosphorylation”. Besides, the “effect of competitor peptide on Cln2-dependent phosphorylation of Sic1ΔC” value at Cln2-Cdk1 (setting [1]) is 3- to 4 fold.
For the molecule “RTT109: purified yeast protein tested as Cdk1 substrate”, in the data set with Clb2-Cdk1, the “kcat/KM, Clb2” value was 0.080 relative units. The “kcat/KM, Clb3” value in the data set with Clb3-Cdk1 was 0.027 relative units. Also, in the data set with Clb5-Cdk1, the “kcat/KM, Clb5” value worked out at 0.010 relative units. In addition, the “kcat/KM, Cln2” value with Cln2-Cdk1 was 0.067 relative units.

B1: STB1: purified yeast protein, Cln2-specific Cdk1 target (protein, UniProt P42845 2-420, looked up)
Protein STB1: SQPQMSPEKEQELASKILHRAELAQMTRQLKLGLSNVPSTKRKQDSTTKKRSGEDAEDVDEDHKTLLEAISPAKKPLHDDTNKMTVISPVKFVEKPNTPPSSRQRKAEDRSQQIKPRKEDTPSTPRASATPIILPHASSHYQRPHDKNFMTPKRNNNNSSNHSNNNNNIKKKAAGSKDAPQDSDNTAGADLLMYLATSPYNKSSHHGTPMAVRMPTTPRSYHYASQLSLNGNTASTSNDAVRFSHIKPSASSPQSTFKSNLLPNFPDESLMDSPSLYLSNNNGSVQATLSPQQRRKPTTNTLHPPSNVPTTPSRELNGTNFNLLRTPNFNMGDYLHNLFSPSPRVPAQQGASNTSASIPSVPAMVPGSSSNTSAIATAAISSHTTNNFLDMNANGIPLIVGPGTDRIGEGESIDDKLTD
For the molecule B1, the “kcat/KM, Clb2” value with Clb2-Cdk1 came to 0.878 relative units. The “kcat/KM, Clb3” value with Clb3-Cdk1 amounted to 0.622 relative units. Besides, the “kcat/KM, Clb5” value in the data set with Clb5-Cdk1 was 0.191 relative units. In addition, the “kcat/KM, Cln2” value in the data set with Cln2-Cdk1 came out at 2.011 relative units.

B2: ACE2: purified yeast protein tested as Cdk1 substrate (protein, UniProt P21192 1-770, looked up)
Metallothionein expression …: MDNVVDPWYINPSGFAKDTQDEEYVQHHDNVNPTIPPPDNYILNNENDDGLDNLLGMDYYNIDDLLTQELRDLDIPLVPSPKTGDGSSDKKNIDRTWNLGDENNKVSHYSKKSMSSHKRGLSGTAIFGFLGHNKTLSISSLQQSILNMSKDPQPMELINELGNHNTVKNNNDDFDHIRENDGENSYLSQVLLKQQEELRIALEKQKEVNEKLEKQLRDNQIQQEKLRKVLEEQEEVAQKLVSGATNSNSKPGSPVILKTPAMQNGRMKDNAIIVTTNSANGGYQFPPPTLISPRMSNTSINGSPSRKYHRQRYPNKSPESNGLNLFSSNSGYLRDSELLSFSPQNYNLNLDGLTYNDHNNTSDKNNNDKKNSTGDNIFRLFEKTSPGGLSISPRINGNSLRSPFLVGTDKSRDDRYAAGTFTPRTQLSPIHKKRESVVSTVSTISQLQDDTEPIHMRNTQNPTLRNANALASSSVLPPIPGSSNNTPIKNSLPQKHVFQHTPVKAPPKNGSNLAPLLNAPDLTDHQLEIKTPIRNNSHCEVESYPQVPPVTHDIHKSPTLHSTSPLPDEIIPRTTPMKITKKPTTLPPGTIDQYVKELPDKLFECLYPNCNKVFKRRYNIRSHIQTHLQDRPYSCDFPGCTKAFVRNHDLIRHKISHNAKKYICPCGKRFNREDALMVHRSRMICTGGKKLEHSINKKLTSPKKSLLDSPHDTSPVKETIARDKDGSVLMKMEEQLRDDMRKHGLLDPPPSTAAHEQNSNRTLSNETDAL
Turning to B2, the “kcat/KM, Clb2” value with Clb2-Cdk1 was determined as 0.069 relative units. In addition, in the data set with Clb3-Cdk1, the “kcat/KM, Clb3” value is 0.029 relative units. In the data set with Clb5-Cdk1, the “kcat/KM, Clb5” value worked out at 0.004 relative units. Besides, the “kcat/KM, Cln2” value in the data set with Cln2-Cdk1 was 0.025 relative units.

B3: YOX1: purified yeast protein tested as Cdk1 substrate (protein, UniProt P34161 1-385, looked up)
Homeobox protein YOX1: MSQETKMLPSLSSLLSGTEISSSPVSPSFTNPRTSFHLDDRGTIKLPPLNTSINRPRSVESALRHTVTSLHENSSAYGDDMLKHTQSDSALSSQLNSSQETVDESHENLLLTPLNSKKRDYSVSSKKNDILTPLSAAKSIIIPSASKEKRRAFAFITHSQETFPKKEPKIDNAPLARRKRRRTSSQELSILQAEFEKCPAPSKEKRIELAESCHMTEKAVQIWFQNKRQAVKRQRIATSKSTTIIQTVSPPSPPLDVHATPLASRVKADILRDGSSCSRSSSSSPLENTPPRPHHSLNRRSSTPSIKRSQALTFHLNPQKKTLTPVKTSPNSRVNKLINSIDHSPSKAKRPVSNPSGSPKRKRKFGFKIVDQQPLKDLDPNAFRG
B3: in the data set with Clb2-Cdk1, the “kcat/KM, Clb2” value amounted to 4.536 relative units. Also, the “kcat/KM, Clb3” value in the data set with Clb3-Cdk1 amounted to 2.094 relative units. In addition, the “kcat/KM, Clb5” value with Clb5-Cdk1 amounted to 0.244 relative units. In the data set with Cln2-Cdk1, the “kcat/KM, Cln2” value is 0.584 relative units.

B4: MSA1: purified yeast protein tested as Cdk1 substrate (protein, UniProt Q08471 1-629, looked up)
G1-specific transcription …: MDKSMIKKRGRPPITKDYPNPLQSPMAHSSMQVQKQGPHSFAKPLMKVGQSSPSPNKRRLSIDHHHNLAATTRKGRYRGVLLSTPTKKSSTNGSTPISTPSSNDSYNNTVFSETRKTFLQSSPPIMTSSPAFQKKNDYMFPSQEQFKLSLTITESGKAVIAGSLPFSPSSKSSHLMNNNNKKIMQNEKIHKGSKKNAPKFEKRRILSLLKQMKNEKYCDTDTLPEAPPAKPSRSDIIDTELPTIIETSASPIGSARNNNILLSQPPQSPPSSAQLKPPSTPKSSLQFRMGFTPNVALNSVSLSDTISKSTNAVGASNNNNQNGNSISNIADANTLLTLTNSPGVFLSPRNKMLPKSTTASNEQQQEFVFKFSSGDPLLLTDDADGNWPEMLFNVSNTPRRQKCFNTPPSWINFGSPGLFSPPRSSNVMVNGTTVATASDSGNVHRQLQAQLEAQVQVQSQSNSPTQRQQQQRQFQIPPPHINMNSSPPQINIASPPHQSMSRVSSIYFNKEKTTTGVANMLGNTKSENLQPPANLFTAAHGPSTPRNQEFQLPTLIECTPLIQQTMNGSLGTKYIPGTSISNSATPNLHGFPVGTGKAPSSFDDSLKQNPYSNKQDDARTALKRLIDDQ
In the case of B4, in the data set with Clb2-Cdk1, the “kcat/KM, Clb2” value was found to be 0.034 relative units. Further, in the data set with Clb3-Cdk1, the “kcat/KM, Clb3” value came to 0.043 relative units. The “kcat/KM, Clb5” value with Clb5-Cdk1 was 0.024 relative units. In addition, the “kcat/KM, Cln2” value with Cln2-Cdk1 stood at 0.157 relative units.

B5: TOS8: purified yeast protein tested as Cdk1 substrate (protein, UniProt P53147 1-276, looked up)
Homeobox protein TOS8: MGTSIVNLNQKIELPPIQVLFESLNRENETKPHFEERRLYQPNPSFVPRTNIAVGSPVNPVPVSSPVFFIGPSPQRSIQNHNAIMTQNIRQYPVIYNNNREVISTGERNYIITVGGPPVTSSQPEYEHISTPNFYQEQRLAQPHPVNESMMIGGYTNPQPISISRGKMLSGNISTNSVRGSNNGYSAKEKKHKAHGKRSNLPKATVSILNKWLHEHVNNPYPTVQEKRELLAKTGLTKLQISNWFINARRRKIFSGQNDANNFRRKFSSSTNLAKF
On to B5, for which the “kcat/KM, Clb2” value in the data set with Clb2-Cdk1 was 0.254 relative units. Besides, the “kcat/KM, Clb3” value in the data set with Clb3-Cdk1 is given as 0.276 relative units. The “kcat/KM, Clb5” value with Clb5-Cdk1 is 0.069 relative units. For the same molecule, the “kcat/KM, Cln2” value with Cln2-Cdk1 was found to be 2.830 relative units.
